Assay results from publication PMC5563082 (2017).

T1: human NL1(–A–B)_(ECTO), biotinylated and immobilised for SPR (human, biotin on the Avitag (in vivo biotinylation by BirA))
T1 chain: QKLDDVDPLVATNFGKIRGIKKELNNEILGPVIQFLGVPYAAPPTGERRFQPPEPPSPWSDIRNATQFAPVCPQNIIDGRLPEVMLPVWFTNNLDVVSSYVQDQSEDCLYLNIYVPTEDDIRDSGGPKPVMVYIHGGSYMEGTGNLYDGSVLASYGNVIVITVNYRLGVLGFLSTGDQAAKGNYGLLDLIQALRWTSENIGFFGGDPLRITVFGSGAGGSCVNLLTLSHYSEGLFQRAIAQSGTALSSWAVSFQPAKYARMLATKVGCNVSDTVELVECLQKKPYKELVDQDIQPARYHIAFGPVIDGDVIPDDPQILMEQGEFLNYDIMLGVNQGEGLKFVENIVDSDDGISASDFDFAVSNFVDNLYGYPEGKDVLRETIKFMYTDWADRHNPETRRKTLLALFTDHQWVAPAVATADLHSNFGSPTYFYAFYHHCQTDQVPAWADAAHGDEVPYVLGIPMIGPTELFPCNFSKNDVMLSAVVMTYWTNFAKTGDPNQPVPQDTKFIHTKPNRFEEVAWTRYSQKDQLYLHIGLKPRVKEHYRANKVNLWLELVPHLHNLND

T2: human NL1(–A–B)_(ECTO) Arg450Cys, immobilised for SPR (human, biotin on the Avitag (in vivo biotinylation by BirA))
T2 chain: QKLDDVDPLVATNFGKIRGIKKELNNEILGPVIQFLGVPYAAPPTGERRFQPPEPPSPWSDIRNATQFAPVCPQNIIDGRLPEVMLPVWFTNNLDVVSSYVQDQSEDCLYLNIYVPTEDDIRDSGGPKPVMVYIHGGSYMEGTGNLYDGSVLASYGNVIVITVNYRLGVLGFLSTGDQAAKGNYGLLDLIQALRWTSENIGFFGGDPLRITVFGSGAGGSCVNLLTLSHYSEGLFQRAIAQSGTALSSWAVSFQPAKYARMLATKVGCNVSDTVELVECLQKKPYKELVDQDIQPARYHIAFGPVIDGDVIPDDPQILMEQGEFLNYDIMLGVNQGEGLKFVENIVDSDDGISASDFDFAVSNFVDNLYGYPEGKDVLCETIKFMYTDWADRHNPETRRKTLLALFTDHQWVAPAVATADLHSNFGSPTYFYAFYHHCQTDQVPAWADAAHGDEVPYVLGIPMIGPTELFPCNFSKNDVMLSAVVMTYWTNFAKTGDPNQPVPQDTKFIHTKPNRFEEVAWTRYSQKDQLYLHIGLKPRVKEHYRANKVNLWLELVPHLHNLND


Assays:
Experiment in all cases: SPR
[1] = target: T1, human NL1(–A–B)_(ECTO), biotinylated …
[2] = target: T2, human NL1(–A–B)_(ECTO) Arg450Cys, …
[3] = target: human NL3(–A)_(ECTO) Arg451Cys, immobilised for SPR (human, UniProt Q9NZ94-1 38-636, –A: nothing between Asp152 and Asp193 | R451C, biotin on the Avitag (in vivo biotinylation by BirA))
Sequence of human NL3(–A)_(ECTO) Arg451Cys, immobilised for SPR (Q9NZ94 other isoform, or with tags, fused parts or gaps –A: nothing between Asp152 and Asp193 | R451C | R451C): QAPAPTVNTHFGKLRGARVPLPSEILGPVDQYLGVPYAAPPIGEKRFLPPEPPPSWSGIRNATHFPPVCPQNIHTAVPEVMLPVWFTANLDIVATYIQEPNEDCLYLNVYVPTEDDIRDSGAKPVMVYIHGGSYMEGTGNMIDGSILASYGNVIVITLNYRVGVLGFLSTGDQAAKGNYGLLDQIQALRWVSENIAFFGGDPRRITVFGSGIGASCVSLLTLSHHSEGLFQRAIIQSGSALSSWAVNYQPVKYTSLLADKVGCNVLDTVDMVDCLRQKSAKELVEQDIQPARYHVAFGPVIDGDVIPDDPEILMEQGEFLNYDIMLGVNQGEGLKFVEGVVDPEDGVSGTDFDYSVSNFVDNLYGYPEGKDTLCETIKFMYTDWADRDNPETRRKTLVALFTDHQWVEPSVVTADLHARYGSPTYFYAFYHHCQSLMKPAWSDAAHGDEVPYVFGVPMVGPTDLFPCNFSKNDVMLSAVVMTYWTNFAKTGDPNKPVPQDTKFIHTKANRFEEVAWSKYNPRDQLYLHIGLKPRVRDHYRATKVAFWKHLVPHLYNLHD

Kd [1] [nM] | Kd [2] [nM] | Kd [3] [nM] | Binder
1720 |  |  | human MDGA1 extracellular domain (MDGA1_(ECTO); Gln19-Lys925) (domain or fragment) QGVYAPAQAQIVHAGQACVVKEDNISERVYTIREGDTLMLQCLVTGHPRPQVRWTKTAGSASDKFQETSVFNETLRIERIARTQGGRYYCKAENGVGVPAIKSIRVDVQYLDEPMLTVHQTVSDVRGNFYQEKTVFLRCTVNSNPPARFIWKRGSDTLSHSQDNGVDIYEPLYTQGETKVLKLKNLRPQDYASYTCQVSVRNVCGIPDKAITFRLTNTTAPPALKLSVNETLVVNPGENVTVQCLLTGGDPLPQLQWSHGPGPLPLGALAQGGTLSIPSVQARDSGYYNCTATNNVGNPAKKTVNLLVRSMKNATFQITPDVIKESENIQLGQDLKLSCHVDAVPQEKVTYQWFKNGKPARMSKRLLVTRNDPELPAVTSSLELIDLHFSDYGTYLCMASFPGAPVPDLSVEVNISSETVPPTISVPKGRAVVTVREGSPAELQCEVRGKPRPPVLWSRVDKEAALLPSGLPLEETPDGKLRLERVSRDMSGTYRCQTARYNGFNVRPREAQVQLNVQFPPEVEPSSQDVRQALGRPVLLRCSLLRGSPQRIASAVWRFKGQLLPPPPVVPAAAEAPDHAELRLDAVTRDSSGSYECSVSNDVGSAACLFQVSAKAYSPEFYFDTPNPTRSHKLSKNYSYVLQWTQREPDAVDPVLNYRLSIRQLNQHNAVVKAIPVRRVEKGQLLEYILTDLRVPHSYEVRLTPYTTFGAGDMASRIIHYTEPINSPNLSDNTCHFEDEKICGYTQDLTDNFDWTRQNALTQNPKRSPNTGPPTDISGTPEGYYMFIETSRPRELGDRARLVSPLYNASAKFYCVSFFYHMYGKHIGSLNLLVRSRNKGALDTHAWSLSGNKGNVWQQAHVPISPSGPFQIIFEGVRGPGYLGDIAIDDVTLKKGECPRKQTDPNK
2590 | 2700 | 47900 | human β-neurexin-1 LNS6 domain with SS4 (β-NRX1_(LNS6)(+4)) (domain or fragment) not shown
 | 760 | 10800 | human β-neurexin-1 LNS6 domain lacking SS4 (β-NRX1_(LNS6)(–4); His85-Val265) (domain or fragment) not shown
